Experimental data as given in article PMC9376891.

Target: Rae1(31-368)-Nup98(157-213) heterodimer (human), P78406
Test: ITC

**Q.** Which Kd does the source give for DEMDTHDPNQLRY (modifications not checked) [VSV M NTE peptide] here?
**A.** Its Kd is 117 µM.
